In this data set the target is T1, GRSF1 wild type (Homo sapiens, UniProt Q12849 118-480).
T1 sequence: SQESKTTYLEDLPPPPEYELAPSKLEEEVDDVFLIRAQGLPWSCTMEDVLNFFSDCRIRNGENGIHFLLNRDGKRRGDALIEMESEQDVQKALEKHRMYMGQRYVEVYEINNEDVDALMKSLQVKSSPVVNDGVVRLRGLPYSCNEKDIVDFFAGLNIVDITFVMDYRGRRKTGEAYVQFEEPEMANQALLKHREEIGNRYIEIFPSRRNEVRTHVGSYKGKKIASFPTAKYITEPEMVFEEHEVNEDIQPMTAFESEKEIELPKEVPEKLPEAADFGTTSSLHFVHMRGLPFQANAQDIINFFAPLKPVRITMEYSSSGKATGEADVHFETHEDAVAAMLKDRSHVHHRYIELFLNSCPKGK
In words: EMSA; 75 ug/ml heparin; EMSA: 5 nM RNA, 0-2560 nM protein, 10 mM Tris-HCl pH 8.0, 2.5 mM KCl, 30 mM NaCl, 1 mM EDTA, 0.2 mM DTT, 75 ug/ml heparin, 30 min at 30 C; 7% PAGE. The conditions noted are these: protein: recombinant; tags: N-terminal 6xHis-SUMO, cleaved by SUMO protease; label: 5'-32P; predicted secondary structure; G4-forming.

In PMC6028389, “Dedicated surveillance mechanism controls G-quadruplex forming non-coding RNAs in human mitochondria” one finds Kd data, which are given here for 1 molecule.

As usually defined, the Kd is a measure of binding affinity in units of concentration.

B1: tRNA-like (structured_RNA)
RNA: GGGCUGUGACUAGUAUGUUGAGUCCUGUAAGUAGGAGAGUGAUAUUUGAUCAGGAGAACGUGGUUACUAGCACCCA
B1: the dissociation constant (Kd) was approximately 100 nM.
